This passage reports Classification results from patent US20050282743A1, “Molecular interactions in cells” (Arbor Vita Corporation, priority 2001, published 2005).

Experiment [1] has as its target T1, PDZ protein (GST-PDZ fusion) (Homo sapiens, UniProt P29074).
T1 construct: made in house; host or cells: E. coli (DH5alpha, BL21 or JM109)
T1 sequence (P29074 1-926): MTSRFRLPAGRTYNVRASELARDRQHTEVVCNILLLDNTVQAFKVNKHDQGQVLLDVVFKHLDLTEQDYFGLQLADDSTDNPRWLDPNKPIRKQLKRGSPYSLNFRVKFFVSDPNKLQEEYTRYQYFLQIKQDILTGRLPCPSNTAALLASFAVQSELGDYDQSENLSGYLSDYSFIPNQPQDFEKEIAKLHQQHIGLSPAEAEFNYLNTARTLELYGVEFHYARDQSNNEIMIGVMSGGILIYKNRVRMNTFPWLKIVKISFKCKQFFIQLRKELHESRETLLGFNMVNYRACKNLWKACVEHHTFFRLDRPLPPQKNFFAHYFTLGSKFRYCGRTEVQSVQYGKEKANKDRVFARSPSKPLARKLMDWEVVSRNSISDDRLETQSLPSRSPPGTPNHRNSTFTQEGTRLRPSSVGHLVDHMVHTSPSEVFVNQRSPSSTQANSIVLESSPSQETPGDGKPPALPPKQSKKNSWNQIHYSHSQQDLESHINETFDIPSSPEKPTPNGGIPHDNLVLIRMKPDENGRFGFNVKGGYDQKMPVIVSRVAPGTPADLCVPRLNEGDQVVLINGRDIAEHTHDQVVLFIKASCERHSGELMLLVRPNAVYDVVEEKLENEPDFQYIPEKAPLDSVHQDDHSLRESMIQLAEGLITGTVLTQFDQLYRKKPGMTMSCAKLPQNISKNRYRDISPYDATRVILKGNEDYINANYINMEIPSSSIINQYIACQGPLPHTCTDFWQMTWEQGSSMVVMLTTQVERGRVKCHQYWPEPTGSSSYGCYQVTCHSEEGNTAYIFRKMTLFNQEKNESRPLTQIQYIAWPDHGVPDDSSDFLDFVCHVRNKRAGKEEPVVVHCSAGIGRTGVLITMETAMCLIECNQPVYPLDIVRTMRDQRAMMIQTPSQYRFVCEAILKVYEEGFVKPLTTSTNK
Kind of experiment: G' assay (10 uM PL peptide), results of TABLE 7 and TABLE 12. The conditions noted are these: PDZ PTN-4, PDZ Domain 1. It is filed as binding. In outline: (§1)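 Biotinylated PL peptides at 10 uM (vs 20 uM in G^0 assay) bound to GST-PDZ fusions; PDZ protein at 5 ug/ml unless another concentration listed. Bound peptide read as A450 nm, classified 0–5 (0 = A450 0; 5 = A450 >4 repeated).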

Experiment [2] concerns the target T2, PDZ protein (GST-PDZ fusion) (Homo sapiens, UniProt O95049).
T2 construct: made in house; host or cells: E. coli (DH5alpha, BL21 or JM109)
T2 sequence (O95049 1-919): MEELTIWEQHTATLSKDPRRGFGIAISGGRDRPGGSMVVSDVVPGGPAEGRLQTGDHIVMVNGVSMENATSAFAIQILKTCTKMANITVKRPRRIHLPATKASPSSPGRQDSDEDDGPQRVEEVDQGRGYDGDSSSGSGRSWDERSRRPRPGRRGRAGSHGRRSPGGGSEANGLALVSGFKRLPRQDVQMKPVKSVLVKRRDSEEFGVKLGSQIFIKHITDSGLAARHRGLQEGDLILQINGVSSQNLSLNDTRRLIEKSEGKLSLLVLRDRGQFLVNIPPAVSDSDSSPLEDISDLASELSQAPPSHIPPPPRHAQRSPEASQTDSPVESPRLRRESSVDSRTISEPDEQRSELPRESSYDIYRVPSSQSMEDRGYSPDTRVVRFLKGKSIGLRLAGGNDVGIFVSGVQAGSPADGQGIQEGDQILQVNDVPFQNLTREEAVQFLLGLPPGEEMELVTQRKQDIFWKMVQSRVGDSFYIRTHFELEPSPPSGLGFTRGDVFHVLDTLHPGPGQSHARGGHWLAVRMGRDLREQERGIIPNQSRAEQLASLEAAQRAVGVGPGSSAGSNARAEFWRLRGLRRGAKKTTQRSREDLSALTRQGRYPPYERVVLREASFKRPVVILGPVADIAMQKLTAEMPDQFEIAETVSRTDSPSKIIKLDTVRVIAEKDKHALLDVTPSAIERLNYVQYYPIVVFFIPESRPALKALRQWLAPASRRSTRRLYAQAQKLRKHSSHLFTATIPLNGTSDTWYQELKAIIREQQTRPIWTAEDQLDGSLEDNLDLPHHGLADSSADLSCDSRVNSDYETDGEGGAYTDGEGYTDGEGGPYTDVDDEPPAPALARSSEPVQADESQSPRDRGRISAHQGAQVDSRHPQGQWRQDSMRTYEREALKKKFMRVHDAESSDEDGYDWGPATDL
The description is as above. It is filed as binding. The method in brief: as §1

Ends that are not written are not given here. Peptide text beside a SMILES is read from it. * marks the point of attachment. Biotin = O=C1N[C@H]2[C@H](CS[C@H]2CCCCC(=O)*)N1

Consider “QATSRNGHSARQHVVADTEL (Biotin-QATSRNGHSARQHVVADTEL) [CD34]”, for which, in experiment [1], the Classification is listed as 1 (A450 nm 0-1). For `CSCC[C@H](NC(=O)[C@H](C)NC(=O)[C@H](CCCNC(=N)N)NC(=O)CNC(=O)[C@@H](NC(=O)[C@H](Cc1c[nH]c2ccccc12)NC(=O)[C@H](CCCNC(=N)N)NC(=O)CNC(=O)CCCC[C@@H]1SC[C@@H]2NC(=O)N[C@@H]21)[C@@H](C)O)C(=O)N[C@@H](CO)C(=O)N[C@@H](C)C(=O)N[C@@H](Cc1c[nH]c2ccccc12)C(=O)N[C@@H](CCCCN)C(=O)N1CCC[C@H]1C(=O)N[C@H](C(=O)N[C@@H](CCCNC(=N)N)C(=O)N[C@@H](CCCNC(=N)N)C(=O)N[C@@H](CCC(=O)O)C(=O)N[C@H](C(=O)N[C@@H](CCC(=O)O)C(=O)N[C@H](C(=O)O)C(C)C)[C@@H](C)O)[C@@H](C)O` [HPV E6 #35 (modified)] (Biotin-GRWTGRAMSAWKPTRRETEV-OH; C-terminus assumed), in experiment [1], the Classification is 4 (A450 nm 3-4). For “A2AA_HUMAN (modified) (Biotin-HDFRRAFKKILARGDRKRIV; not fully specified)”, the Classification in experiment [2] (PDZ ZO-3, PDZ Domain 2) was 3 (A450 nm 2-3). Regarding `CC(C)C[C@H](NC(=O)[C@H](C)NC(=O)[C@@H](NC(=O)[C@H](CCC(=O)O)NC(=O)[C@H](CCCNC(=N)N)NC(=O)[C@H](CCCNC(=N)N)NC(=O)CNC(=O)[C@H](CCC(N)=O)NC(=O)[C@H](CC(C)C)NC(=O)[C@H](CCCNC(=N)N)NC(=O)CNC(=O)CNC(=O)[C@H](CCCNC(=N)N)NC(=O)[C@H](C)NC(=O)[C@H](CO)NC(=O)[C@H](CCCNC(=N)N)NC(=O)CNC(=O)CNC(=O)[C@H](C)NC(=O)[C@H](C)NC(=O)CCCC[C@@H]1SC[C@@H]2NC(=O)N[C@@H]21)[C@@H](C)O)C(=O)O` [HPV E6 33 (modified)] (Biotin-AAGGRSARGGRLQGRRETAL-OH; C-terminus assumed), the Classification in experiment [1] is 1 (A450 nm 0-1). As to “PYSELNYETSHYPASPDSWV (Biotin-PYSELNYETSHYPASPDSWV) [catenin - delta 2]”, the Classification in experiment [2] (PDZ ZO-3, PDZ Domain 3) was 3 (A450 nm 2-3). On the same count and under the same terms, for “KTMPAAMFRLLTGQETPLYI (Biotin-KTMPAAMFRLLTGQETPLYI) [MINT-2]” the value was 1 (A450 nm 0-1). For TQGFPGPATWRRISSLESEV, in experiment [1], the Classification is recorded as 2 (A450 nm 1-2).

Consider `CC[C@H](C)[C@H](NC(=O)[C@H](Cc1ccc(O)cc1)NC(=O)[C@@H](NC(=O)[C@@H]1CCCN1C(=O)[C@H](CCC(N)=O)NC(=O)[C@H](CCC(=O)O)NC(=O)[C@H](CCC(N)=O)NC(=O)[C@H](C)NC(=O)[C@@H](NC(=O)[C@H](CC(C)C)NC(=O)[C@H](CC(C)C)NC(=O)[C@H](CCCNC(=N)N)NC(=O)[C@H](Cc1ccc(O)cc1)NC(=O)[C@H](CCSC)NC(=O)[C@H](C)NC(=O)[C@H](C)NC(=O)[C@@H]1CCCN1C(=O)[C@H](CCSC)NC(=O)[C@@H](NC(=O)[C@H](CCCCN)NC(=O)CCCC[C@@H]1SC[C@@H]2NC(=O)N[C@@H]21)[C@@H](C)O)[C@@H](C)O)C(C)C)C(=O)O` [MINT-1] (Biotin-KTMPAAMYRLLTAQEQPVYI-OH; C-terminus assumed), for which the Classification in experiment [2] (PDZ ZO-3, PDZ Domain 1) is on record as 2 (A450 nm 1-2); in experiment [2] (PDZ ZO-3, PDZ Domain 3), 1 (A450 nm 0-1). On to `CC[C@H](C)[C@H](NC(=O)[C@H](CCC(N)=O)NC(=O)CCCC[C@@H]1SC[C@@H]2NC(=O)N[C@@H]21)C(=O)N[C@@H](CO)C(=O)N1CCC[C@H]1C(=O)NCC(=O)NCC(=O)N[C@@H](CC(C)C)C(=O)N[C@@H](CCC(=O)O)C(=O)N1CCC[C@H]1C(=O)N1CCC[C@H]1C(=O)N[C@@H](CO)C(=O)N[C@@H](CCC(=O)O)C(=O)N[C@@H](CCCCN)C(=O)N[C@@H](Cc1c[nH]cn1)C(=O)N[C@@H](Cc1ccccc1)C(=O)N[C@@H](CCCNC(=N)N)C(=O)N[C@@H](CCC(=O)O)C(=O)N[C@H](C(=O)N[C@@H](CCC(=O)O)C(=O)N[C@H](C(=O)O)C(C)C)[C@@H](C)O` [Tax], for which the Classification in experiment [1] is given as 2 (A450 nm 1-2). Turning to “ELLQFCRTPNPALKNGQYWV (Biotin-ELLQFCRTPNPALKNGQYWV)”, the Classification in experiment [2] (PDZ ZO-3, PDZ Domain 1) is reported as 2 (A450 nm 1-2); in experiment [2] (PDZ ZO-3, PDZ Domain 3), 5 (A450 nm of 4 more than 2× repeated).
